The series deals with Escherichia coli TOP10. The series is described as follows: shrunken log2 fold change of peptide-encoding DNA abundance (4.5 h post-induction vs induction); higher = less antimicrobial activity (less host growth inhibition). The following applies: time post-induction: 4.5 h; library: site-saturation at positions 5, 18, 19, 20.
For RRIRGRPPRLPRPRPRPFSCPRP, the “shrunken log2 fold change” value was -0.262. The value for RRIRGRPPRLPRPRPRPCRDPRP was 0.128; that for RRIRQRPPRLPRPRPRPWDCPRP was -0.383; that for RRIRDRPPRLPRPRPRPCKYPRP was 0.0244. The value for RRIRWRPPRLPRPRPRPKYHPRP was 0.185; that for RRIRTRPPRLPRPRPRPTPSPRP was 0.563.

For the sequence RRIRCRPPRLPRPRPRPTAQPRP, the “shrunken log2 fold change” value was determined as 0.301. The value for RRIRVRPPRLPRPRPRPQTQPRP was 0.104.

Regarding RRIRVRPPRLPRPRPRPKGCPRP, the “shrunken log2 fold change” value stood at 0.015.

For RRIRVRPPRLPRPRPRPAVIPRP, the “shrunken log2 fold change” value was -0.0266. Regarding RRIRPRPPRLPRPRPRPCKEPRP, the “shrunken log2 fold change” value is -0.0274. The figure for RRIRPRPPRLPRPRPRPWYQPRP is -0.0967. The value for RRIRDRPPRLPRPRPRPNIYPRP was -0.3. The figure for RRIRCRPPRLPRPRPRPSPQPRP is 0.445; for RRIRIRPPRLPRPRPRPQATPRP it is -0.24.

Consider RRIRVRPPRLPRPRPRPDTYPRP, for which the “shrunken log2 fold change” value was -0.995.

Take RRIRCRPPRLPRPRPRPLASPRP: the “shrunken log2 fold change” value was determined as 0.139.

For RRIRDRPPRLPRPRPRPFWMPRP, the “shrunken log2 fold change” value is 0.0871. The figure for RRIRLRPPRLPRPRPRPYDEPRP is -0.353; for RRIRFRPPRLPRPRPRPADKPRP it is 0.0852.

As for RRIRVRPPRLPRPRPRPVTLPRP, the “shrunken log2 fold change” value was -0.227. The value for RRIRERPPRLPRPRPRPVLRPRP was -0.156. The value for RRIRNRPPRLPRPRPRPCRMPRP was -0.195. The figure for RRIRQRPPRLPRPRPRPQPDPRP is -0.00546; for RRIRLRPPRLPRPRPRPPRDPRP it is 0.531. Regarding RRIRQRPPRLPRPRPRPPNLPRP, the “shrunken log2 fold change” value was -0.00283. The value for RRIRDRPPRLPRPRPRPYVKPRP was -0.313; that for RRIRSRPPRLPRPRPRPMGGPRP was 0.334; that for RRIRTRPPRLPRPRPRPYRGPRP was -0.519. On to RRIRYRPPRLPRPRPRPAISPRP, for which the “shrunken log2 fold change” value is -0.149. In the case of RRIRFRPPRLPRPRPRPPACPRP, the “shrunken log2 fold change” value was determined as 0.628. The value for RRIRWRPPRLPRPRPRPLHEPRP was 0.148; that for RRIRFRPPRLPRPRPRPQQNPRP was 0.383. The value for RRIRTRPPRLPRPRPRPCQYPRP was -0.293; that for RRIRCRPPRLPRPRPRPNLEPRP was -0.267.

Take RRIRIRPPRLPRPRPRPMWNPRP: the “shrunken log2 fold change” value was -0.472. The value for RRIRLRPPRLPRPRPRPQYEPRP was -0.166.

Take RRIRWRPPRLPRPRPRPKKQPRP: the “shrunken log2 fold change” value was 0.176. As to RRIRERPPRLPRPRPRPTISPRP, the “shrunken log2 fold change” value is -0.163. The value for RRIRRRPPRLPRPRPRPNGEPRP was 0.43; that for RRIRGRPPRLPRPRPRPYEQPRP was -0.157. The figure for RRIRKRPPRLPRPRPRPWGAPRP is 0.449; for RRIRPRPPRLPRPRPRPNRYPRP it is -0.0334. The figure for RRIRKRPPRLPRPRPRPNKKPRP is -0.279. As to RRIRFRPPRLPRPRPRPVVSPRP, the “shrunken log2 fold change” value turned out to be 0.0235. The figure for RRIRIRPPRLPRPRPRPCLDPRP is -0.0653.

Consider RRIRSRPPRLPRPRPRPFGIPRP, for which the “shrunken log2 fold change” value is -0.172. The figure for RRIRARPPRLPRPRPRPEPTPRP is 0.832. The value for RRIRGRPPRLPRPRPRPHATPRP was 1.35; that for RRIRQRPPRLPRPRPRPQRVPRP was -0.182. The value for RRIRQRPPRLPRPRPRPNGEPRP was 0.0404. RRIRDRPPRLPRPRPRPFQFPRP: the “shrunken log2 fold change” value is -0.324. The value for RRIRNRPPRLPRPRPRPHKLPRP was -0.411; that for RRIRDRPPRLPRPRPRPYWHPRP was -0.921. The value for RRIRFRPPRLPRPRPRPMREPRP was 1.08; that for RRIRLRPPRLPRPRPRPEVNPRP was 0.0855. The value for RRIRKRPPRLPRPRPRPVHMPRP was -0.0183; that for RRIRNRPPRLPRPRPRPKEEPRP was 0.0169; that for RRIRVRPPRLPRPRPRPFVTPRP was -0.206.

In the case of RRIRTRPPRLPRPRPRPDYTPRP, the “shrunken log2 fold change” value is -0.606. The value for RRIRKRPPRLPRPRPRPHRKPRP was -0.0475; that for RRIRSRPPRLPRPRPRPTSAPRP was 0.321.

RRIRGRPPRLPRPRPRPITLPRP: the “shrunken log2 fold change” value came out at 0.217. The figure for RRIRKRPPRLPRPRPRPFAFPRP is 0.272; for RRIRARPPRLPRPRPRPWHTPRP it is -0.219; for RRIRNRPPRLPRPRPRPKYEPRP it is -0.167. The figure for RRIRTRPPRLPRPRPRPCVYPRP is -0.243; for RRIRPRPPRLPRPRPRPSNAPRP it is 0.055. The figure for RRIRVRPPRLPRPRPRPNGSPRP is 0.00532. For RRIRCRPPRLPRPRPRPEFNPRP, the “shrunken log2 fold change” value is -0.0266. The value for RRIRARPPRLPRPRPRPWVKPRP was 0.0825; that for RRIRWRPPRLPRPRPRPPEAPRP was 0.428; that for RRIRERPPRLPRPRPRPMDVPRP was -0.0821. The figure for RRIRLRPPRLPRPRPRPNCVPRP is 0.138; for RRIRIRPPRLPRPRPRPKTKPRP it is -0.0929; for RRIRYRPPRLPRPRPRPHDVPRP it is -0.379.

With RRIRYRPPRLPRPRPRPNVEPRP, the “shrunken log2 fold change” value is -0.155. In the case of RRIRARPPRLPRPRPRPPCNPRP, the “shrunken log2 fold change” value amounted to 0.0888.

For RRIRSRPPRLPRPRPRPSGFPRP, the “shrunken log2 fold change” value was 0.0519. The figure for RRIRLRPPRLPRPRPRPGSAPRP is 0.273; for RRIRLRPPRLPRPRPRPVENPRP it is -0.209.

On to RRIRARPPRLPRPRPRPHRDPRP, for which the “shrunken log2 fold change” value was determined as 0.0774. As for RRIRIRPPRLPRPRPRPMQEPRP, the “shrunken log2 fold change” value is -0.2.

Regarding RRIRVRPPRLPRPRPRPRMEPRP, the “shrunken log2 fold change” value worked out at 0.413.

Take RRIRKRPPRLPRPRPRPCQVPRP: the “shrunken log2 fold change” value is -0.00846. Take RRIRKRPPRLPRPRPRPLFRPRP: the “shrunken log2 fold change” value was found to be 0.696. For the sequence RRIRWRPPRLPRPRPRPAATPRP, the “shrunken log2 fold change” value stood at 2.26. The figure for RRIRIRPPRLPRPRPRPCLYPRP is -0.248. The figure for RRIRSRPPRLPRPRPRPYFFPRP is -0.682; for RRIRKRPPRLPRPRPRPKQPPRP it is -0.0354. The figure for RRIRCRPPRLPRPRPRPTTGPRP is -0.0721. Consider RRIRNRPPRLPRPRPRPEQQPRP, for which the “shrunken log2 fold change” value was determined as 0.736. The value for RRIRQRPPRLPRPRPRPTGYPRP was 0.0832.

For the sequence RRIRARPPRLPRPRPRPMVRPRP, the “shrunken log2 fold change” value was 0.348. The figure for RRIRKRPPRLPRPRPRPQCWPRP is 0.00452.

Consider RRIRHRPPRLPRPRPRPIWCPRP, for which the “shrunken log2 fold change” value is -0.0133. The value for RRIRVRPPRLPRPRPRPAFKPRP was 0.086; that for RRIRIRPPRLPRPRPRPGTRPRP was 0.0641.

Take RRIRTRPPRLPRPRPRPHTMPRP: the “shrunken log2 fold change” value is -0.406. The figure for RRIRERPPRLPRPRPRPERSPRP is 0.149.

Take RRIRTRPPRLPRPRPRPVTYPRP: the “shrunken log2 fold change” value was 0.0141.

For the sequence RRIRHRPPRLPRPRPRPNEIPRP, the “shrunken log2 fold change” value was -0.21. The value for RRIRCRPPRLPRPRPRPNNLPRP was -0.765; that for RRIRERPPRLPRPRPRPHSAPRP was -0.179. The figure for RRIRKRPPRLPRPRPRPCHCPRP is -0.241; for RRIRGRPPRLPRPRPRPSYNPRP it is 0.0742; for RRIRTRPPRLPRPRPRPPMYPRP it is -0.406. The value for RRIRIRPPRLPRPRPRPMIKPRP was -0.761; that for RRIRVRPPRLPRPRPRPEFGPRP was 0.177; that for RRIRHRPPRLPRPRPRPKAKPRP was 0.00599. On to RRIRQRPPRLPRPRPRPDGFPRP, for which the “shrunken log2 fold change” value is -0.0107. The figure for RRIRMRPPRLPRPRPRPSWAPRP is 0.203; for RRIRPRPPRLPRPRPRPVVMPRP it is -0.174.

Take RRIRVRPPRLPRPRPRPNAPPRP: the “shrunken log2 fold change” value was 0.379. The value for RRIRLRPPRLPRPRPRPGQHPRP was -0.0142. The value for RRIRNRPPRLPRPRPRPAGFPRP was 0.0141. The figure for RRIRGRPPRLPRPRPRPELNPRP is 0.724; for RRIRVRPPRLPRPRPRPPDYPRP it is -0.114. Take RRIRDRPPRLPRPRPRPQGQPRP: the “shrunken log2 fold change” value came out at 0.000653. The figure for RRIRQRPPRLPRPRPRPYWLPRP is -0.307; for RRIRTRPPRLPRPRPRPWNEPRP it is 0.00902; for RRIRFRPPRLPRPRPRPTTCPRP it is -0.19. On to RRIRIRPPRLPRPRPRPCSWPRP, for which the “shrunken log2 fold change” value was -0.31.

In the case of RRIRCRPPRLPRPRPRPRFDPRP, the “shrunken log2 fold change” value was determined as 0.136. The value for RRIRNRPPRLPRPRPRPCLVPRP was 0.0322.

These data come from the supplement of paper PMC9112550, “Optimization of the antimicrobial peptide Bac7 by deep mutational scanning” (BMC Biology, 2022).
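Further: peptides expressed intracellularly from a pBAD plasmid library in pooled LB shake-flask culture, induced with 0.3% L-arabinose, DNA abundance read by NGS, three biological replicates, DESeq2 with apeglm shrinkage.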
